Columns and labels:
[1] = biological target: CheY K91C, methylene blue at position 91 (E. coli) (UniProt P0AE67); test: electrochemical sensor
[2] = biological target: phosphorylated CheY K91C, methylene blue at position 91 (E. coli) (UniProt P0AE67); test: electrochemical sensor

- Kd [1]: 213 µM
- Kd [2]: 16 µM
Substance: 16-residue target region of the flagellar switch protein FliM (peptide)
